Laboratory results reported in publication PMC7060403 (Journal of molecular biology, 2019).

Target: T1, RavP-C (C-terminal region of the rabies virus phosphoprotein, residues 140-297) (rabies virus, UniProt P22363 140-297)
T1 sequence: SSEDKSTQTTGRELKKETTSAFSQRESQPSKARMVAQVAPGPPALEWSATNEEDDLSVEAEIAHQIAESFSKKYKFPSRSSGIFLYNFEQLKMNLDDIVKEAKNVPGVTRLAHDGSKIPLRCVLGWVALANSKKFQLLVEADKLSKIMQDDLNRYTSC
Test: ITC

B1: LC8 from Drosophila melanogaster (natural protein, UniProt Q24117 1-89, looked up)
chain: MSDRKAVIKNADMSEEMQQDAVDCATQALEKYNIEKDIAAYIKKEFDKKYNPTWHCIVGRNFGSYVTHETRHFIYFYLGQVAILLFKSG
- Kd: 4.19 µM
